Source: patent US20210324359A1, “USE OF GRAM-NEGATIVE LYSIN-ANTIMICROBIAL PEPTIDE (AMP) POLYPEPTIDE CONSTRUCTS IN TREATING ENDOCARDITIS” (priority 2020, published 2021)

Experiments:
[1] = system: biofilms formed by P. aeruginosa strain ATCC 17646; settings: strain ATCC 17646 biofilm
Protocol: (§1) Biofilms are then washed and treated with e.g., a 2-fold dilution series of the lysin in TSBg at e.g., 37° C. for 24 hours. After treatment, wells are washed, air-dried at e.g., 37° C. and stained with e.g., 0.05% crystal violet for 10 minutes.

[2] = system: P. aeruginosa isolates; test: MIC against a range of isolates in CAA + […] human serum (Table 11); assay type: cell-based, Pseudomonas aeruginosa
[3] = system: Pseudomonas aeruginosa strain CFS-1292 (meropenem resistant); test: MIC in 25% CAA alone, with […] human serum or […] SURVANTA (Table 13); assay type: cell-based
Protocol: (§2) Materials and methods: MICs were determined by broth microdilution in media supplemented with human serum and pulmonary surfactant ([…]®; Myoderm Clinical Supplies). Minimal biofilm eradicating concentrations (MBECs) were determined using standard methods. […] Fluorescence microscopy was performed after LIVE/DEAD staining (ThermoFisher) and TEM was performed.

[4] = system: P. aeruginosa; test: MIC, modified CLSI broth microdilution in CAA medium without or with […] human serum (Table 4); assay type: cell-based, Pseudomonas aeruginosa; on CAA/HuS MIC: CAA supplemented with 2.5% human serum
From the text: 2015. […] Clinical and Laboratory Standards Institute, Wayne, Pa.

[5] = system: carbapenem-resistant P. aeruginosa strains; test: Resensitization of carbapenem-resistant strains, combinations with imipenem or meropenem (Tables 18-22); assay type: cell-based, Pseudomonas aeruginosa; settings: for FICI: isolate WC-452
Protocol: Such resensitization may be determined by combining the present lysins or lysin-AMP polypeptide constructs with an antibiotic in a checkerboard assay as described herein. Antibiotic-resistant bacteria, such as carbapenem-resistant P. aeruginosa, are added to the lysin or lysin-AMP polypeptide construct combination. […] See Clinical and Laboratory Standards Institute (CLSI), CLSI. […] M100 Performance Standards for Antimicrobial Susceptibility Testing; 29th Edition. Clinical and Laboratory Standards Institute, Wayne, Pa., which is herein incorporated by reference in its entirety.
Up to seven carbapenem-resistant isolates were assessed. […] See Clinical and Laboratory Standards Institute (CLSI), CLSI. […] M100 Performance Standards for Antimicrobial Susceptibility Testing; 29th Edition. Clinical and Laboratory Standards Institute, Wayne, Pa.

[6] = system: P. aeruginosa strains; test: Checkerboard synergy with meropenem in 25% CAA and […] human serum (Table 16); assay type: cell-based, Pseudomonas aeruginosa; settings: for FICI value (Run #1), with meropenem / FICI value (Run #2), with meropenem: 25% CAA and […] human serum
[7] = system: Pseudomonas aeruginosa strain CFS-1292 (meropenem resistant); settings: strain CFS-1292; no added cations
Protocol: The activity of selected GN lysins and constructs in the presence of divalent cations was evaluated, and the impact of divalent cations at physiological concentrations was examined in the MIC assay format.

[8] = system: P. aeruginosa strain WC-453; test: Time-kill assay in HEPES or CAA with 25% human serum (Tables 7, 8); assay type: cell-based, Pseudomonas aeruginosa
Protocol: Exponential phase bacteria were then pelleted and resuspended in 1/5 culture volume of 25 mM HEPES, pH 7.4 before a final adjustment to an optical density corresponding to a McFarland value of 0.5. […] All treatments were incubated at 37° C. with aeration. At time points before the addition of lysin (or buffer control) and at 1 hour and 3 hours intervals thereafter, culture samples were removed for quantitative plating on CAA agar plates.

[9] = system: Pseudomonas aeruginosa biofilm; test: MBEC in CAA supplemented with […] human serum (Table 14); assay type: cell-based
Protocol: as §1, §2

[10] = system: outer membrane of P. aeruginosa (CFS 1292); test: N-phenyl-1-napthylamine (NPN) uptake assay, outer membrane destabilization (Table 15); assay type: cell-based, Pseudomonas aeruginosa; settings: NPN fluorescence, buffer = 100, lysin 100 μg/well
Protocol: The ability of gram-negative lysins to destabilize the outer membrane of P. aeruginosa was evaluated through the use of an N-phenyl-1-napthylamine (NPN) uptake assay. […] NPN was added to a final concentration of […]. […] Changes in fluorescence were recorded (excitation 1=350 nm; emission 1=420 nm) over two hours.

B1: GN428: lysin obtained from Escherichia virus CBA120 (SEQ ID NO: 60) (protein, listed as Escherichia virus)
chain: MAILKLGNRGSEVKALQQSLNKIGFSLTADGIFGKATENAVKSVQAGAGLVIDGIAGPKTFYAIRNAGDAHQEHLTEADLVDAARELGVELASMKAVNQVESRGTGFTKTGKIKTLFERHIMYKKVTAKFGQARANALYQLYPTLVNPNSGGYIGGDAELERLQGAIALDEDCAYESASYGLFQIMGFNCQICGYSNAKEMFTDFLTGERAHLLAFVKFIKADANMWKALKNKNWAEFARRYNGPAYAKNQYDTKLAAAYKSFC
For B1, the MBEC [1] was 1 µg/mL, the “activity against P. aeruginosa isolates in human serum or SURVANTA” value ([2]; Tables 11 and 12) was “active against a variety of P. aeruginosa isolates” and the “MIC, CAA + […] Human Serum” value ([2]; strain CFS 1109 (ATCC 17646)) was 1 µg/mL. The “MIC, CAA + […] Human Serum” value ([2]; strain CFS 1292) was 2 µg/mL, the “MIC, CAA + […] Human Serum” value ([2]; strain CFS1539 (PA1)) was 1 µg/mL and the “MIC, CAA + […] Human Serum” value ([2]; strain CFS 1540 (PA2)) was 1 µg/mL. For the same molecule, the “MIC, CAA + […] Human Serum” value ([2]; strain CFS 1541 (PA3)) was 1 µg/mL, the “MIC, CAA + […] Human Serum” value ([2]; strain CFS 1557 (PA19)) was 4 µg/mL and the “MIC, CAA + […] Human Serum” value ([2]; strain CFS 1558 (PA20)) was 2 µg/mL. For the same molecule, the “MIC, CAA + […] Human Serum” value ([2]; strain CFS 1559 (PA21)) was 2 µg/mL, the “MIC, CAA + […] Human Serum” value ([2]; strain CFS 1560 (PA22)) was 2 µg/mL and the “MIC, CAA + […] Human Serum” value ([2]; strain CFS 1561 (PA23)) was 2 µg/mL. The “MIC, CAA + […] Human Serum” value ([2]; strain CFS 1562 (PA24)) was 2 µg/mL, the “MIC, CAA + […] Human Serum” value ([2]; strain CFS 1596 (PA26)) was 1 µg/mL and the “MIC, CAA + […] Human Serum” value ([2]; strain CFS 1597 (PA27)) was 0.5 µg/mL. The “MIC, CAA + […] Human Serum” value ([2]; strain CFS 1669 (PA41)) was 2 µg/mL, the “MIC, CAA + […] Human Serum” value ([2]; strain CFS 1674 (PA46)) was 2 µg/mL and the “MIC, CAA + […] Human Serum” value ([2]; strain CFS 1675 (PA47)) was 1 µg/mL. The “MIC, CAA + […] Human Serum” value ([2]; strain CFS 1766 (ATCC 27853)) was 4 µg/mL, the “MIC in […] Survanta” value [3] was 4 µg/mL and the “MIC in human serum ([…]) in CAA” value [3] was 0.125 µg/mL. The “activity in human serum and pulmonary surfactant” value [3] was “active in human serum and pulmonary surfactant”, the “25% CAA MIC” value ([3]; media alone) was 4 and the “CAA MIC” value ([4]; CAA medium, no human serum) was 8000 µg/mL. The “CAA/HuS MIC” value ([4]; CAA supplemented with […] human serum) was 125 µg/mL, the “resensitization to carbapenems in synergistic combinations” value ([5]; imipenem (IPM) and meropenem (MEM), carbapenem-resistant isolates) was “reductions of IPM and MEM MICS to below breakpoint values” and the FICI ([5]; lysin + imipenem) was 0.188. The FICI ([5]; lysin + meropenem) was 0.188, the “Antibiotic MIC / Lysin MIC, Alone” value ([5]; vs. WC-452 (Table 22)) was 2 and the synergy with meropenem ([6]; FICI less than or equal to 0.5 = potent synergy) was “exhibited synergy with meropenem”. The “FICI value (Run #1), with meropenem” value ([6]; strain CFS 1292) was 0.1875, the “FICI value (Run #2), with meropenem” value ([6]; strain CFS 1292) was 0.219 and the “FICI value (Run #1), with meropenem” value ([6]; strain CFS 1557 (PA19)) was 0.1562. The “FICI value (Run #2), with meropenem” value ([6]; strain CFS 1557 (PA19)) was 0.198, the “FICI value (Run #1), with meropenem” value ([6]; strain CFS 1558 (PA20)) was 0.09375 and the “FICI value (Run #2), with meropenem” value ([6]; strain CFS 1558 (PA20)) was 0.135. The “FICI value (Run #2), with meropenem” value ([6]; strain CFS 1559 (PA21)) was 0.396, the “FICI value (Run #2), with meropenem” value ([6]; strain CFS 1560 (PA22)) was 0.229 and the “FICI value (Run #2), with meropenem” value ([6]; strain CFS 1561 (PA23)) was 0.323. For the same molecule, the “FICI value (Run #2), with meropenem” value ([6]; strain CFS 1562 (PA24)) was 0.198, the “FICI value (Run #2), with meropenem” value ([6]; strain CFS 1766 (ATCC 27853)) was 0.156 and the “MIC in 25% CAA” value [7] was 4 µg/mL. The “bactericidal activity (CFU decrease of 3-Log10, 3 hours after the addition of lysin)” value ([8]; 10 μg/mL, enumerated lysins in CAA/HuS, general statement for HEPES and CAA/HuS) was “bactericidal activity”, the “CAA/HuS (Log10 CFU/mL), 1 hr” value ([8]; CAA + 25% human serum, lysin 10 μg/ml, 1 hr, WC-453) was 5.5 Log10 CFU/mL and the “CAA/HuS (Log10 CFU/mL), 3 hr” value ([8]; CAA + 25% human serum, lysin 10 μg/ml, 3 hr, WC-453) was less than 3.7 Log10 CFU/mL. The “MBEC in CAA supplemented with […] human serum” value [9] was 1 µg/mL, the “% RFU” value ([10]; 5 minutes) was 194 % RFU and the “% RFU” value ([10]; 10 minutes) was 242 % RFU. For the same molecule, the “% RFU” value ([10]; 20 minutes) was 271 % RFU, the “% RFU” value ([10]; 40 minutes) was 250 % RFU and the “% RFU” value ([10]; 60 minutes) was 183 % RFU. For the same molecule, the “% RFU” value ([10]; 100 minutes) was 137 % RFU.
